In patent US20140087995A1 (published 2014):
Numbered stars: 1 amine (or outer) side, 2 acyl side, 3 side chain; on linkers, the order of the positions; unused ones are H or OH. Bridge positions count the residues as written; N and C are the ends. Side chains are listed from the residue outwards. Ends that are not written are not given here. * marks the point of attachment. C20 diacid = O=C(O)CCCCCCCCCCCCCCCCCCC(=O)*; γGlu = O=C(O)[C@H](CCC(=O)[*:2])N[*:1]

T1: human amylin 3(a) receptor (human calcitonin receptor co-expressed with RAMP-3) (human, UniProt P30988 25-474; O60896 24-148, limits assumed)
T1 sequence (looked up) 1: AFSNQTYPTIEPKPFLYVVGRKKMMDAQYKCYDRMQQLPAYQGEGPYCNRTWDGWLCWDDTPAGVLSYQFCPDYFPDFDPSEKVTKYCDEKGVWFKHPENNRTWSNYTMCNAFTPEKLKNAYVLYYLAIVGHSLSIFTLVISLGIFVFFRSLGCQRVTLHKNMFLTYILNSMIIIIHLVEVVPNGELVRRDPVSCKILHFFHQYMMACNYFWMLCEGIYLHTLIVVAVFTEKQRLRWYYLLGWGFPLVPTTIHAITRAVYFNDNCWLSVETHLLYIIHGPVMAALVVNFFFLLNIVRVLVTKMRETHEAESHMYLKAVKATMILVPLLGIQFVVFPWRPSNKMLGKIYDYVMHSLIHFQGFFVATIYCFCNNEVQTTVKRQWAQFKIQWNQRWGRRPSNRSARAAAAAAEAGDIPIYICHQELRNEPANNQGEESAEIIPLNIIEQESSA
T1 sequence (looked up) 2: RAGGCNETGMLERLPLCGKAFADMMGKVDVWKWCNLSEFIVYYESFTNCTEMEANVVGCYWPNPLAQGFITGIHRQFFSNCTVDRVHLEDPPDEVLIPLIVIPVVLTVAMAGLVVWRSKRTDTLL

T2: human calcitonin receptor (human, UniProt P30988 25-474)
T2 sequence (looked up): T1 sequence (looked up) 1

B1: N^-1-[(4S)-4-carboxy-4-(19-carboxynonadecanoylamino)butanoyl]-Gly[Arg1,His14,Arg17,Pro21,Pro27,His34]-h-amylin (peptide)
peptide: {C20 diacid-γGlu}-GRCNTATCATQRLAHFLRHSSPNFGAIPSSTNVGHNTY-NH2
modifications: disulfide 3-8
SMILES: CC[C@H](C)[C@H](NC(=O)[C@H](C)NC(=O)CNC(=O)[C@H](Cc1ccccc1)NC(=O)[C@H](CC(N)=O)NC(=O)[C@@H]1CCCN1C(=O)[C@H](CO)NC(=O)[C@H](CO)NC(=O)[C@H](Cc1c[nH]cn1)NC(=O)[C@H](CCCNC(=N)N)NC(=O)[C@H](CC(C)C)NC(=O)[C@H](Cc1ccccc1)NC(=O)[C@H](Cc1c[nH]cn1)NC(=O)[C@H](C)NC(=O)[C@H](CC(C)C)NC(=O)[C@H](CCCNC(=N)N)NC(=O)[C@H](CCC(N)=O)NC(=O)[C@@H](NC(=O)[C@H](C)NC(=O)[C@@H]1CSSC[C@H](NC(=O)[C@H](CCCNC(=N)N)NC(=O)CNC(=O)CC[C@H](NC(=O)CCCCCCCCCCCCCCCCCCC(=O)O)C(=O)O)C(=O)N[C@@H](CC(N)=O)C(=O)N[C@@H]([C@@H](C)O)C(=O)N[C@@H](C)C(=O)N[C@@H]([C@@H](C)O)C(=O)N1)[C@@H](C)O)C(=O)N1CCC[C@H]1C(=O)N[C@@H](CO)C(=O)N[C@@H](CO)C(=O)N[C@H](C(=O)N[C@@H](CC(N)=O)C(=O)N[C@H](C(=O)NCC(=O)N[C@@H](Cc1c[nH]cn1)C(=O)N[C@@H](CC(N)=O)C(=O)N[C@H](C(=O)N[C@@H](Cc1ccc(O)cc1)C(N)=O)[C@@H](C)O)C(C)C)[C@@H](C)O
notes: also called compound 100
B2: N^-1-[(4S)-4-carboxy-4-(19-carboxynonadecanoylamino)butanoyl]-Gly[Arg1,Ala14,Arg17,Pro21,Pro27,Pro34]-h-amylin (peptide)
peptide: {C20 diacid-γGlu}-GRCNTATCATQRLAAFLRHSSPNFGAIPSSTNVGPNTY-NH2
modifications: disulfide 3-8
B3: N^-1-[(4S)-4-carboxy-4-(19-carboxynonadecanoylamino)butanoyl]-Gly[Arg1,Ala14,Arg17,Pro21,Pro27,His34]-h-amylin (peptide)
peptide: {C20 diacid-γGlu}-GRCNTATCATQRLAAFLRHSSPNFGAIPSSTNVGHNTY-NH2
modifications: disulfide 3-8
SMILES: CC[C@H](C)[C@H](NC(=O)[C@H](C)NC(=O)CNC(=O)[C@H](Cc1ccccc1)NC(=O)[C@H](CC(N)=O)NC(=O)[C@@H]1CCCN1C(=O)[C@H](CO)NC(=O)[C@H](CO)NC(=O)[C@H](Cc1c[nH]cn1)NC(=O)[C@H](CCCNC(=N)N)NC(=O)[C@H](CC(C)C)NC(=O)[C@H](Cc1ccccc1)NC(=O)[C@H](C)NC(=O)[C@H](C)NC(=O)[C@H](CC(C)C)NC(=O)[C@H](CCCNC(=N)N)NC(=O)[C@H](CCC(N)=O)NC(=O)[C@@H](NC(=O)[C@H](C)NC(=O)[C@@H]1CSSC[C@H](NC(=O)[C@H](CCCNC(=N)N)NC(=O)CNC(=O)CC[C@H](NC(=O)CCCCCCCCCCCCCCCCCCC(=O)O)C(=O)O)C(=O)N[C@@H](CC(N)=O)C(=O)N[C@@H]([C@@H](C)O)C(=O)N[C@@H](C)C(=O)N[C@@H]([C@@H](C)O)C(=O)N1)[C@@H](C)O)C(=O)N1CCC[C@H]1C(=O)N[C@@H](CO)C(=O)N[C@@H](CO)C(=O)N[C@H](C(=O)N[C@@H](CC(N)=O)C(=O)N[C@H](C(=O)NCC(=O)N[C@@H](Cc1c[nH]cn1)C(=O)N[C@@H](CC(N)=O)C(=O)N[C@H](C(=O)N[C@@H](Cc1ccc(O)cc1)C(N)=O)[C@@H](C)O)C(C)C)[C@@H](C)O
B4: N^ε1-[(4S)-4-carboxy-4-[[(4S)-4-carboxy-4-(19-carboxynonadecanoylamino)butanoyl]amino]butanoyl]-[Glu14,Arg17,Pro21,Pro27,Arg35]-h-amylin (peptide)
peptide: K([γGlu-γGlu-C20 diacid])CNTATCATQRLAEFLRHSSPNFGAIPSSTNVGSRTY-NH2
modifications: disulfide 2-7; N-terminus assumed
SMILES: CC[C@H](C)[C@H](NC(=O)[C@H](C)NC(=O)CNC(=O)[C@H](Cc1ccccc1)NC(=O)[C@H](CC(N)=O)NC(=O)[C@@H]1CCCN1C(=O)[C@H](CO)NC(=O)[C@H](CO)NC(=O)[C@H](Cc1c[nH]cn1)NC(=O)[C@H](CCCNC(=N)N)NC(=O)[C@H](CC(C)C)NC(=O)[C@H](Cc1ccccc1)NC(=O)[C@H](CCC(=O)O)NC(=O)[C@H](C)NC(=O)[C@H](CC(C)C)NC(=O)[C@H](CCCNC(=N)N)NC(=O)[C@H](CCC(N)=O)NC(=O)[C@@H](NC(=O)[C@H](C)NC(=O)[C@@H]1CSSC[C@H](NC(=O)[C@@H](N)CCCCNC(=O)CC[C@H](NC(=O)CC[C@H](NC(=O)CCCCCCCCCCCCCCCCCCC(=O)O)C(=O)O)C(=O)O)C(=O)N[C@@H](CC(N)=O)C(=O)N[C@@H]([C@@H](C)O)C(=O)N[C@@H](C)C(=O)N[C@@H]([C@@H](C)O)C(=O)N1)[C@@H](C)O)C(=O)N1CCC[C@H]1C(=O)N[C@@H](CO)C(=O)N[C@@H](CO)C(=O)N[C@H](C(=O)N[C@@H](CC(N)=O)C(=O)N[C@H](C(=O)NCC(=O)N[C@@H](CO)C(=O)N[C@@H](CCCNC(=N)N)C(=O)N[C@H](C(=O)N[C@@H](Cc1ccc(O)cc1)C(N)=O)[C@@H](C)O)C(C)C)[C@@H](C)O
notes: also called compound 89
B5: N^ε1-[(4S)-4-carboxy-4-[[(4S)-4-carboxy-4-(19-carboxynonadecanoylamino)butanoyl]amino]butanoyl]-[His14,Arg17,Pro21,Pro27]-h-amylin (peptide)
peptide: K([γGlu-γGlu-C20 diacid])CNTATCATQRLAHFLRHSSPNFGAIPSSTNVGSNTY-NH2
modifications: disulfide 2-7; N-terminus assumed
SMILES: CC[C@H](C)[C@H](NC(=O)[C@H](C)NC(=O)CNC(=O)[C@H](Cc1ccccc1)NC(=O)[C@H](CC(N)=O)NC(=O)[C@@H]1CCCN1C(=O)[C@H](CO)NC(=O)[C@H](CO)NC(=O)[C@H](Cc1c[nH]cn1)NC(=O)[C@H](CCCNC(=N)N)NC(=O)[C@H](CC(C)C)NC(=O)[C@H](Cc1ccccc1)NC(=O)[C@H](Cc1c[nH]cn1)NC(=O)[C@H](C)NC(=O)[C@H](CC(C)C)NC(=O)[C@H](CCCNC(=N)N)NC(=O)[C@H](CCC(N)=O)NC(=O)[C@@H](NC(=O)[C@H](C)NC(=O)[C@@H]1CSSC[C@H](NC(=O)[C@@H](N)CCCCNC(=O)CC[C@H](NC(=O)CC[C@H](NC(=O)CCCCCCCCCCCCCCCCCCC(=O)O)C(=O)O)C(=O)O)C(=O)N[C@@H](CC(N)=O)C(=O)N[C@@H]([C@@H](C)O)C(=O)N[C@@H](C)C(=O)N[C@@H]([C@@H](C)O)C(=O)N1)[C@@H](C)O)C(=O)N1CCC[C@H]1C(=O)N[C@@H](CO)C(=O)N[C@@H](CO)C(=O)N[C@H](C(=O)N[C@@H](CC(N)=O)C(=O)N[C@H](C(=O)NCC(=O)N[C@@H](CO)C(=O)N[C@@H](CC(N)=O)C(=O)N[C@H](C(=O)N[C@@H](Cc1ccc(O)cc1)C(N)=O)[C@@H](C)O)C(C)C)[C@@H](C)O
notes: also called compound 92
B6: N^ε1-[(4S)-4-carboxy-4-[[(4S)-4-carboxy-4-(19-carboxynonadecanoylamino)butanoyl]amino]butanoyl]-[Glu14,Arg17,Pro21,Pro27,His34,Glu35]-h-amylin (peptide)
peptide: K([γGlu-γGlu-C20 diacid])CNTATCATQRLAEFLRHSSPNFGAIPSSTNVGHETY-NH2
modifications: disulfide 2-7; N-terminus assumed
SMILES: CC[C@H](C)[C@H](NC(=O)[C@H](C)NC(=O)CNC(=O)[C@H](Cc1ccccc1)NC(=O)[C@H](CC(N)=O)NC(=O)[C@@H]1CCCN1C(=O)[C@H](CO)NC(=O)[C@H](CO)NC(=O)[C@H](Cc1c[nH]cn1)NC(=O)[C@H](CCCNC(=N)N)NC(=O)[C@H](CC(C)C)NC(=O)[C@H](Cc1ccccc1)NC(=O)[C@H](CCC(=O)O)NC(=O)[C@H](C)NC(=O)[C@H](CC(C)C)NC(=O)[C@H](CCCNC(=N)N)NC(=O)[C@H](CCC(N)=O)NC(=O)[C@@H](NC(=O)[C@H](C)NC(=O)[C@@H]1CSSC[C@H](NC(=O)[C@@H](N)CCCCNC(=O)CC[C@H](NC(=O)CC[C@H](NC(=O)CCCCCCCCCCCCCCCCCCC(=O)O)C(=O)O)C(=O)O)C(=O)N[C@@H](CC(N)=O)C(=O)N[C@@H]([C@@H](C)O)C(=O)N[C@@H](C)C(=O)N[C@@H]([C@@H](C)O)C(=O)N1)[C@@H](C)O)C(=O)N1CCC[C@H]1C(=O)N[C@@H](CO)C(=O)N[C@@H](CO)C(=O)N[C@H](C(=O)N[C@@H](CC(N)=O)C(=O)N[C@H](C(=O)NCC(=O)N[C@@H](Cc1c[nH]cn1)C(=O)N[C@@H](CCC(=O)O)C(=O)N[C@H](C(=O)N[C@@H](Cc1ccc(O)cc1)C(N)=O)[C@@H](C)O)C(C)C)[C@@H](C)O
B7: N^ε1-[(4S)-4-carboxy-4-[[(4S)-4-carboxy-4-(19-carboxynonadecanoylamino)butanoyl]amino]butanoyl]-[Glu14,Arg17,Pro21,Pro27,Pro34,Arg35]-h-amylin (peptide)
peptide: K([γGlu-γGlu-C20 diacid])CNTATCATQRLAEFLRHSSPNFGAIPSSTNVGPRTY-NH2
modifications: disulfide 2-7; N-terminus assumed
SMILES: CC[C@H](C)[C@H](NC(=O)[C@H](C)NC(=O)CNC(=O)[C@H](Cc1ccccc1)NC(=O)[C@H](CC(N)=O)NC(=O)[C@@H]1CCCN1C(=O)[C@H](CO)NC(=O)[C@H](CO)NC(=O)[C@H](Cc1c[nH]cn1)NC(=O)[C@H](CCCNC(=N)N)NC(=O)[C@H](CC(C)C)NC(=O)[C@H](Cc1ccccc1)NC(=O)[C@H](CCC(=O)O)NC(=O)[C@H](C)NC(=O)[C@H](CC(C)C)NC(=O)[C@H](CCCNC(=N)N)NC(=O)[C@H](CCC(N)=O)NC(=O)[C@@H](NC(=O)[C@H](C)NC(=O)[C@@H]1CSSC[C@H](NC(=O)[C@@H](N)CCCCNC(=O)CC[C@H](NC(=O)CC[C@H](NC(=O)CCCCCCCCCCCCCCCCCCC(=O)O)C(=O)O)C(=O)O)C(=O)N[C@@H](CC(N)=O)C(=O)N[C@@H]([C@@H](C)O)C(=O)N[C@@H](C)C(=O)N[C@@H]([C@@H](C)O)C(=O)N1)[C@@H](C)O)C(=O)N1CCC[C@H]1C(=O)N[C@@H](CO)C(=O)N[C@@H](CO)C(=O)N[C@H](C(=O)N[C@@H](CC(N)=O)C(=O)N[C@H](C(=O)NCC(=O)N1CCC[C@H]1C(=O)N[C@@H](CCCNC(=N)N)C(=O)N[C@H](C(=O)N[C@@H](Cc1ccc(O)cc1)C(N)=O)[C@@H](C)O)C(C)C)[C@@H](C)O
notes: also called compound 110

Target: T1, human amylin 3(a) receptor (human …)
Test: cell-based or functional assay

hAmylin-R funct. EC50	Binder
0.253 nM	B1
0.07 nM	B2
0.109 nM	B3
0.404 nM	B4
0.085 nM	B5
0.445 nM	B6
0.278 nM	B7

Target: T2, human calcitonin receptor
Test: cell-based or functional assay

Ratio hCT/hAmylin funct.	hCTR funct. EC50	Binder
6.8	1.73 nM	B1
2.1	0.148 nM	B2
4.9	0.537 nM	B3
27.8	11.2 nM	B4
28	2.38 nM	B5
15.8	7.05 nM	B6
29.3	8.16 nM	B7
